# Test results taken from publication PMC4073527.
# Target: LRIM1 (An. gambiae)
# Assay: non-reducing SDS-PAGE western blot
substance,measurement,value
LRIM1 (natural protein),stoichiometry N,2
